The source of these data is the supplement of paper PMC12042874.

± gives the uncertainty stated by the source.

The nature of the series: amyloid nucleation score (Sup35N fusion, yeast selection) (log enrichment); library NNK2; higher = more nucleation; inactive = no reads after selection. The method in brief: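 Three technical output replicates were used for random libraries. Psi-negative yeast expressing peptides of 20 random codons fused to Sup35N were induced with 100 μM copper sulfate for 24 hours and grown 7 days at 30°C on medium lacking adenine and uracil, and input and output plasmid inserts were Illumina-sequenced, excluding sequences with under 100 input reads. The nucleation score is the DiMSum log enrichment of output over input reads, centred on the mode score of non-aggregating sequences.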

In turn, CPSLRGVVVRSLSTGSSDAR displayed an amyloid nucleation score of 0.163 ± 0.56.

Take QYVEFPLMLTET: the amyloid nucleation score was determined as 0.025 ± 0.79.

Turning to LTVVV, the amyloid nucleation score was 0.709 ± 0.66.

The substance SNYHSGRVKGGDVGVYIS displayed an amyloid nucleation score of 3.57 ± 0.051.

Take IRRFRGLTSRSTRCSKGSKG: the amyloid nucleation score is -0.072 ± 0.45.

For LRNMPRVQQVCPYFINVRGK, the amyloid nucleation score was 2.25 ± 0.082.

Regarding ARMRKFTCRDWFRDPMGQPA, the amyloid nucleation score stood at 0.854 ± 0.25.

For KYYRQSCQDRPILFDVALYY, the amyloid nucleation score result is “inactive”.

With LCSTHVMKLWFYVSFLLF, the amyloid nucleation score was -0.397 ± 0.78.

The substance KSVGVQALMLAKGIYFSING came in with an amyloid nucleation score of 1.53 ± 0.28.

In turn, SYYEFVVNLGKPAISVDSIT gave an amyloid nucleation score of 0.349 ± 0.51.

RTRLYIDQRRKAFYPGLGFS: the amyloid nucleation score worked out at 0.347 ± 0.55.

As for FWFKV, the amyloid nucleation score worked out at 0.335 ± 0.42.

Consider FCLTVLVV, for which the amyloid nucleation score was 4.18 ± 0.11.

Take TGAFPDCLALMYKGAEEVER: the amyloid nucleation score was 0.011 ± 0.28.

In the case of WFHVITFFLGASCIMWTKTR, the amyloid nucleation score result is “inactive”.

RGQMRLQRRLPKLRTSGKLQ returned an amyloid nucleation score of 1.49 ± 0.34.

In turn, LRESFKRWMLVVAATLYAFK yielded an amyloid nucleation score of 0.376 ± 0.48.

For YKDHGCNDSWK, the amyloid nucleation score was -0.572 ± 0.44.

As for QYLSALSSAISGGDVYMMSK, the amyloid nucleation score was found to be 5.15 ± 0.065.

FASALNYTLYWSSSLTLFAL gave an amyloid nucleation score of 2.54 ± 0.067.

GWGRLTY displayed an amyloid nucleation score of 0.21 ± 0.74.

Take LKQDKGITGEVVGVRILGS: the amyloid nucleation score was found to be 0.22 ± 0.32.

Substance HSRKFADVKSWLTTDKKRIR gave an amyloid nucleation score of 0.37 ± 0.48.

With SLCPCLMIIS, the amyloid nucleation score was -0.852 ± 0.38.

For the substance EKHWSFFTGMSVSHRLFRQN, the amyloid nucleation score result was “inactive”.

MESINSVSSSNIVHRFRRGV registered an amyloid nucleation score of 5.58 ± 0.077.

On to VSFYDVH, for which the amyloid nucleation score is 0.011 ± 1.1.

Regarding SDSTSVLPGRTYWVHFSAQG, the amyloid nucleation score was determined as 0.086 ± 0.61.

Take VVSTSYIGGKKRSFCVRCGG: the amyloid nucleation score was -0.73 ± 0.49.

The substance VEMRLGRDEIFNRHQKGIYA had an amyloid nucleation score of 2.02 ± 0.36.

Substance PLLSVVYTNLRSSDGRVV returned an amyloid nucleation score of 1.54 ± 0.31.

On to FYFGYLTFISENHVGIQEQG, for which the amyloid nucleation score entry is “inactive”.

Regarding SFKLYLYVGAVFFRLLSLVS, the amyloid nucleation score was -1.08 ± 0.76.

The substance CILEHRSEQWYCYLWPARRG displayed an amyloid nucleation score of 4.24 ± 0.078.

With FGVRDDILDSWCCTVCFSGK, the amyloid nucleation score is 0.369 ± 0.65.

HSLVTDEASCLTDRGHVGQV came in with an amyloid nucleation score of 1.22 ± 0.27.

Regarding RVTHAFCSSINGTNANYPRR, the amyloid nucleation score worked out at 2.54 ± 0.097.

In the case of SRIRDLVPHIRC, the amyloid nucleation score is -0.594 ± 1.1.

For LCILVFRGASRSLFSGGVFT, the amyloid nucleation score was -0.199 ± 0.76.

Regarding LCLRDFSFDGLVGSR, the amyloid nucleation score was 0.119 ± 0.65.

Turning to PEQAVFTNNKYIYEVWLTTK, the amyloid nucleation score entry is “inactive”.

For EAWRNLYFGLSRRHRRYGSL, the amyloid nucleation score stood at 1.49 ± 0.18.

The substance SDRGLRACQCVCWDFDSISM showed an amyloid nucleation score of 6.212 ± 0.046.

In turn, YMLTIRFICFGAVGHSDMHE had an amyloid nucleation score of 0.672 ± 0.18.

Turning to IRFWSKSGFVQGCSIRISLS, the amyloid nucleation score was found to be 0.02 ± 1.

Turning to TVYEMGASMLVKILHWKVLN, the amyloid nucleation score was -0.801 ± 0.38.

With FIDVHMEYRDKTRCWLVLVL, the amyloid nucleation score is -0.891 ± 0.78.

For the substance YALAAVSRFG, the amyloid nucleation score is 0.22 ± 0.55.

On to FLRWRDKWHG, for which the amyloid nucleation score came to 0.861 ± 0.29.

For the substance DTVALCNWLMRLESFSFAGQ, the amyloid nucleation score turned out to be 1.83 ± 0.19.

Regarding NCVHRDNWE, the amyloid nucleation score result is “inactive”.

ISSSKRYVLKS: the amyloid nucleation score was 0.583 ± 0.39.

Turning to GDSPNNSYWIADSW, the amyloid nucleation score is 2.75 ± 0.15.

With SYSLIVE, the amyloid nucleation score is 0.919 ± 0.48.

For CSVVGWE, the amyloid nucleation score stood at 0.671 ± 0.66.

NWHGSIFFIW registered an amyloid nucleation score of 5.708 ± 0.049.

Take NIVQEHTTCTEVRGVSALAR: the amyloid nucleation score stood at 0.436 ± 0.66.

In turn, MFVQCICRGIHIIVPGSVRS yielded an amyloid nucleation score of 3.88 ± 0.13.

FIMCSDYPYHITPYPWLGPG: the amyloid nucleation score is -0.59 ± 0.37.

Regarding DRPGDRSGTAWAWFRCETGG, the amyloid nucleation score was found to be 1.1 ± 0.31.

As for LILTFLEWNLFFYSFNIFTY, the amyloid nucleation score is 5.39 ± 0.078.

Regarding ETHIITCLRYRRRMARPHRY, the amyloid nucleation score entry is “inactive”.

In turn, VFSNWVNVVWS displayed an amyloid nucleation score of 5.172 ± 0.039.

Take EFGYFYLAMKISTSRYKQNY: the amyloid nucleation score was found to be 1.41 ± 0.14.

KTCRFLCA yielded an amyloid nucleation score of 0.176 ± 0.64.

For MRRTPFCVWKHIYRM, the amyloid nucleation score turned out to be 0.182 ± 1.1.

As to RASVFF, the amyloid nucleation score result was “inactive”.

AECNRHLLQAVSLY: the amyloid nucleation score is -0.256 ± 0.29.

Regarding YYCFHLKEYCRWRSANPHFK, the amyloid nucleation score is -0.073 ± 1.

VLDFQTSYMLPEFVRPGVGY displayed an amyloid nucleation score of 0.216 ± 0.25.

In the case of SVRKGVFNSSMNGVCTTVQS, the amyloid nucleation score was -0.28 ± 0.74.

Take NMFNPFRFRISNYEVCSNMC: the amyloid nucleation score was determined as 6.257 ± 0.043.

In the case of AYYCLRDLEVEYKVGYGSRL, the amyloid nucleation score was found to be 2.64 ± 0.21.

Consider NVPKSSINEWSLPDLLVLNV, for which the amyloid nucleation score amounted to 0.923 ± 0.81.

In turn, SHGPLR returned an amyloid nucleation score of 5.556 ± 0.053.

As for ISCCDRGCDAYLEVWPKLNK, the amyloid nucleation score was -0.523 ± 1.

HKGVLEINSRVETLRSSAVN: the amyloid nucleation score is -0.545 ± 0.63.

As for SNWNTTPVSPS, the amyloid nucleation score worked out at 0.514 ± 0.44.

For the substance SVRFAC, the amyloid nucleation score is -0.114 ± 1.1.

For TCPCRYLDVNIDAMFVTMDI, the amyloid nucleation score stood at 7.789 ± 0.056.

As for RNLGSCY, the amyloid nucleation score is -0.08 ± 0.46.

With TMLSESTVQTKRVRMQESRR, the amyloid nucleation score came out at 7.03 ± 0.071.

YSHGEVCCWSCVMWVKHFMR gave an amyloid nucleation score of 1.47 ± 0.33.

In the case of HIIASCTV, the amyloid nucleation score is 1.18 ± 0.38.

YTCRYRFTLNQTSSRRFSFW: the amyloid nucleation score worked out at 1.35 ± 0.13.

Turning to RIWKWLLTQICFIRAQPLM, the amyloid nucleation score came to 0.49 ± 0.31.

With HTVTKVTLRLVCTMGCFKMM, the amyloid nucleation score amounted to 0.135 ± 0.65.

As to GHGFCDNVTSP, the amyloid nucleation score was -1.2 ± 1.1.

Turning to NASPFSHKYHEWFEVEGSSI, the amyloid nucleation score worked out at 0.108 ± 0.65.

RYSATLYPTVPPDPLSAWAL displayed an amyloid nucleation score of 3.8 ± 0.057.

SNIYLVPRFIWP: the amyloid nucleation score is -0.338 ± 0.61.

In the case of QIFVR, the amyloid nucleation score was found to be 0.689 ± 0.55.

Regarding GTSVIHISYFIYYPGDRVRR, the amyloid nucleation score turned out to be 6.811 ± 0.052.

FNLTFNHF gave an amyloid nucleation score of 6.041 ± 0.045.

For the substance IVDSIFTFGTRVDGWLGDCA, the amyloid nucleation score was -0.259 ± 0.32.

With FKNQGDLQTCLLFD, the amyloid nucleation score is -0.012 ± 0.79.

Turning to TTEYG, the amyloid nucleation score was 0.239 ± 0.5.

HYAFVLGYKFYYGVANYCDG displayed an amyloid nucleation score of 0.886 ± 0.66.

Consider FGYYQLYNDQGGYYPMSSAS, for which the amyloid nucleation score result was “inactive”.

In turn, NHSVTWLPD yielded an amyloid nucleation score of 1.27 ± 0.41.

Regarding SWNELSRFLVILLFQLSRDR, the amyloid nucleation score was -0.795 ± 0.43.

The substance HYYLSTVSVYIGMPIRWFSG returned an amyloid nucleation score of 0.371 ± 0.38.

For CLYRTLWSCLWSGMMIFCTD, the amyloid nucleation score was -1.77 ± 1.

As for YVLKVVIRRLRRSCVSCTWH, the amyloid nucleation score was -0.109 ± 0.25.

Substance LALMFLYAALFHAAR registered an amyloid nucleation score of 7.139 ± 0.058.

Turning to CHFSYKECRSAVRMLQYNGA, the amyloid nucleation score amounted to 2.54 ± 0.13.

As to ARKISV, the amyloid nucleation score entry is “inactive”.

AWRAYITILGKDHAVSVSGL gave an amyloid nucleation score of 0.715 ± 0.43.

PFLAFRGVWNFGL yielded an amyloid nucleation score of 5.1 ± 0.068.

NQFVVMDQVLVMWGCFDLTR: the amyloid nucleation score came out at 0.417 ± 0.46.

As to IICMEVIFSLANCADWRTAV, the amyloid nucleation score was determined as 3.53 ± 0.12.

As for DFAFAFVVGTVLAISICVKH, the amyloid nucleation score was -0.459 ± 0.56.

On to VEREDVHKGRRFAQACNNLV, for which the amyloid nucleation score came out at 0.495 ± 0.41.

As to CIFFPRGSNFFLFQMCGLSF, the amyloid nucleation score was found to be 3.83 ± 0.097.

VTSNGKRTWHVAAAFGAPGE registered an amyloid nucleation score of 2.54 ± 0.12.

For VNRSTELHFIVMREMVWLKS, the amyloid nucleation score was -0.287 ± 0.62.

As for WKIQACVSYQQGAVRGVCVD, the amyloid nucleation score was 0.139 ± 0.34.

For SRSFKVRNL, the amyloid nucleation score result was “inactive”.

The substance KSQVPPNFWVVMCLTEFSVV had an amyloid nucleation score of 5.628 ± 0.046.

As for GYFKRHLRM, the amyloid nucleation score is -0.619 ± 1.

As for YRDVQNN, the amyloid nucleation score entry was “inactive”.

For the substance GTQRAYGVKGKLETDLIRLK, the amyloid nucleation score amounted to 8.554 ± 0.059.

As for GMMLPVFMIFIRRACINYSL, the amyloid nucleation score entry is “inactive”.

Regarding FMRMGTFYSDAVCMLYVSKR, the amyloid nucleation score worked out at 1.28 ± 0.23.

Take SYEVNIYKLRLQGSSSGF: the amyloid nucleation score is 3.44 ± 0.066.

For the substance VIYRSNLASRGMNHAVFSKR, the amyloid nucleation score was -0.92 ± 0.28.

RCMFDIYFVLVTCEQWCCLV yielded an amyloid nucleation score of 0.099 ± 0.49.

As to PCSGSLPRTKTD, the amyloid nucleation score was -0.167 ± 0.32.

MNACSQGVSQSSDFQL yielded an amyloid nucleation score of 5.08 ± 0.066.

With NWWRD, the amyloid nucleation score was -0.071 ± 0.43.

IFYCFGKLDA came in with an amyloid nucleation score of 5.18 ± 0.072.

In the case of AYLTTREAVGLFNKACLASY, the amyloid nucleation score is 0.439 ± 0.74.

Regarding RVVQKKQLIV, the amyloid nucleation score was 0.3 ± 0.49.

For TVGGNQTLSKLFWSFQGMFW, the amyloid nucleation score entry was “inactive”.

Turning to SVYREWLPSSSRVWCMSLSG, the amyloid nucleation score was -0.317 ± 0.63.

On to AMGVC, for which the amyloid nucleation score was -0.061 ± 0.41.

In the case of SINLLLGAGVVGGGLVLYGS, the amyloid nucleation score was found to be 2.45 ± 0.14.

For LAFDK, the amyloid nucleation score result was “inactive”.

IGTEWVFVM gave an amyloid nucleation score of 0.17 ± 0.64.
